These results are taken from paper PMC2606027.

Assay [1] has as its target Full-length HIV-1 IN fused to the DNA binding domain of Gal4 (WT bait) (HIV-1). Briefly: two-hybrid.
The target of assay [2] is KKK HIV-1 IN (D6K/E10K/E13K) fused to the DNA binding domain of Gal4 (HIV-1). Briefly: two-hybrid; Gal4 DBD-IN bait and Gal4 AD-LEDGF IBD prey in S. cerevisiae Y187; β-galactosidase activity relative to WT bait/WT prey (100%); background: WT IN with empty prey vector.
The target in assay [3] is LEDGF IBD fused to Gal4 transcription activation domain (WT prey). Briefly: yeast two-hybrid (β-galactosidase reporter). The conditions noted are these: S. cerevisiae Y187; quadruplicate measurements; read off a plot.

Regarding “AAA LEDGF IBD (K401A/K402A/R405A) fused to Gal4 transcription activation domain (domain or fragment)”, in assay [1], the binding relative to WT (β-galactosidase activity) is 5 % of WT.
Turning to “EEE LEDGF IBD (K401E/K402E/R405E) fused to Gal4 transcription activation domain (domain or fragment)”, the β-galactosidase activity relative to WT-WT in assay [2] is 40 % of WT-WT.
On to “Full-length HIV-1 IN fused to the DNA binding domain of Gal4 (WT bait) D6K; E10K; E13K”, for which the percent of parent in assay [3] was 1.2 % of WT/WT.
For the substance “Full-length HIV-1 IN fused to the DNA binding domain of Gal4 (WT bait) E10K; E13K”, the percent of parent in assay [3] is 1.3 % of WT/WT.
